Assay results published in article PMC9630320, “Interaction between DLC-1 and SAO-1 facilitates CED-4 translocation during apoptosis in the Caenorhabditis elegans germline” (Cell Death Discovery, 2022).
Blank lines part the entries; values can stand above or below the molecule they belong to.

Tests used:
SAO-1::RFP (C. elegans) = test: FRET or BRET; fluorescence lifetime imaging (FLIM) of the GFP donor in live adult worms; TCSPC
[1] = target: purified C-terminal region (residues 182–226) of SAO-1 (ITC) (C. elegans); test: ITC; 25 °C; 50 mM Tris-Cl pH 7.5, 100 mM NaCl; 400 μM DLC-1 injected into 40 μM SAO-1; 13 titrations; one-site binding model
[2] = target: SAO-1C1(182-205) peptide (crystal) (C. elegans); test: crystal structure; sitting drop vapor diffusion at 16 °C; 0.2 M potassium chloride, 0.05 M HEPES pH 7.5, 35% pentaerythritol propoxylate; 2.4 Å
Trx-His6-DLC-1, Q22799 = target: T1, Trx-His6-DLC-1, Q22799; test: pull-down (GST pull-down, Western blot with His antibody, band quantification); settings: chain shown with the change;; parent: est. 1.0; read off a plot
T1 chain: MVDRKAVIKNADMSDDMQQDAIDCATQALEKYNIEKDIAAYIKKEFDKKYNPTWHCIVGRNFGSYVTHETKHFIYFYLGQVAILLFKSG

[3] = target: the molecule itself; test: crystal structure; sitting drop vapor diffusion at 16 °C; 0.2 M potassium chloride, 0.05 M HEPES pH 7.5, 35% pentaerythritol propoxylate; 2.4 Å

- GFP mean fluorescence lifetime (τ) with SAO-1::RFP (SAO-1::RFP (C. elegans)): 2.85 ns
Molecule: DLC-1::GFP (from UniProt Q22799 1-89) (natural protein)

- Kd [1]: 500 nM
- stoichiometry N (DLC-1 per SAO-1) [1]: 2
- stoichiometry N (DLC-1 per SAO-1) [2]: 2
Molecule: full-length DLC-1 (ITC and crystallography) (from UniProt Q22799 1-89) (natural protein)

- ratio to parent (Trx-His6-DLC-1, Q22799): 0.57
B1: GST-SAO-1 V187A; T189A (protein)
chain: MHKNGNNGPVIDTKWHYLGPDSEKYGPYMSKDMLFWLQAGYFNDGLQLKTENEPNYHTLGEWSQLLGTHPFSMPVHSLDATIAQMNSMRPHGAMMMVPPGLQNQFQPPMPMRFPPFLPMPLLHQMNQNGPPMGAQMHSQPPSEPIDAGSLSHTPDSENEFQGHGRKPHHHQQILAHQHIPQMQHANAAADQVVMKSVECQTEPVEISKEQASRVLSELLGQMVIIN

- ratio to parent (Trx-His6-DLC-1, Q22799): 0.15
B2: GST-SAO-1 C199A; Q200A; T201A (protein)
chain: MHKNGNNGPVIDTKWHYLGPDSEKYGPYMSKDMLFWLQAGYFNDGLQLKTENEPNYHTLGEWSQLLGTHPFSMPVHSLDATIAQMNSMRPHGAMMMVPPGLQNQFQPPMPMRFPPFLPMPLLHQMNQNGPPMGAQMHSQPPSEPIDAGSLSHTPDSENEFQGHGRKPHHHQQILAHQHIPQMQHANVATDQVVMKSVEAAAEPVEISKEQASRVLSELLGQMVIIN

B3: full-length DLC-1 (ITC and crystallography) (natural protein, C. elegans, UniProt Q22799 1-89, looked up)
chain: MVDRKAVIKNADMSDDMQQDAIDCATQALEKYNIEKDIAAYIKKEFDKKYNPTWHCIVGRNFGSYVTHETKHFIYFYLGQVAILLFKSG
notes: dynein light chain 1 (DLC-1), C. elegans; Same construct as m1; Forms dimers in the crystal
- binding result [3]: binds
